Here are results for three molecules from paper PMC8358037 (Communications Biology, 2021).

This assay has as its target combined repetitive oligopeptide domain of C. difficile toxin A (AviTag-His6-CROP) (Clostridium difficile, UniProt P16154 2304-2710). The assay is described as follows: SPR. The following applies: both partners purified.

B1: anti-CROP gastrobody G9 (His6-Thrombin site-SpyTag003-gastrobody) (designed binder)
chain: DFVLDNEGNPLENGGTYYILSHPDLFGGIRAAPTGNERCPLTVVQSLYLFDKGIGTIISSPYRIRFIAEGHPLSLKFDSFAVIMLCVGIPTEWSVVEDLPEGPAVKIGENKDAMDGWFRLERVSDDEFNNYKLVFCPQQAEDDKCGDIGISIDHDDGTRRLVVSKNKPLVVQFQKLDKESL
By Kd is commonly meant a measure of binding affinity in units of concentration. Take B1: the Kd was 4.1 µM.

B2: anti-CROP gastrobody T42 (His6-Thrombin site-SpyTag003-gastrobody) (designed binder)
chain: DFVLDNEGNPLENGGTYYILSVPHQFGGIRAAPTGNERCPLTVVQSRNKWDKGIGTIISSPYRIRFIAEGHPLSLKFDSFAVIMLCVGIPTEWSVVEDLPEGPAVKIGENKDAMDGWFRLERVSDDEFNNYKLVFCPQQAEDDKCGDIGISIDHDDGTRRLVVSKNKPLVVQFQKLDKESL
Regarding B2, the Kd came to 6.2 µM.

B3: anti-CROP gastrobody G22 (His6-Thrombin site-SpyTag003-gastrobody) (designed binder)
chain: DFVLDNEGNPLENGGTYYILSLQNRFGGIRAAPTGNERCPLTVVQSHDFMDKGIGTIISSPYRIRFIAEGHPLSLKFDSFAVIMLCVGIPTEWSVVEDLPEGPAVKIGENKDAMDGWFRLERVSDDEFNNYKLVFCPQQAEDDKCGDIGISIDHDDGTRRLVVSKNKPLVVQFQKLDKESL
As to B3, the dissociation constant (Kd) was approximately 50 µM.
